In US20240409634A1 (Janssen / Centocor, published 2024):

B1: CD33 antibody JL2 combined with Vdelta2 antibody 6H4 (JL2x6H4), Fab (CD33) x VHH (Vδ2) Fc construct (bispecific antibody, human IgG1, kappa, L234A L235A)
heavy: EVQLVESGGGLVQPGGSLRLSCVVSGFTFSSYWMTWVRQAPGKGLEWVANIKQDGSERYYVDSVKGRFTISRDSAKNSLYLQMNSLRAEDTAVYYCAREVGYNWNQGGYFDYWGQGTLVTVSSASTKGPSVFPLAPSSKSTSGGTAALGCLVKDYFPEPVTVSWNSGALTSGVHTFPAVLQSSGLYSLSSVVTVPSSSLGTQTYICNVNHKPSNTKVDKKVEPKSCDKTHTCPPCPAPEAAGGPSVFLFPPKPKDTLMISRTPEVTCVVVSVSHEDPEVKFNWYVDGVEVHNAKTKPREEQYNSTYRVVSVLTVLHQDWLNGKEYKCKVSNKALPAPIEKTISKAKGQPREPQVYTLPPSREEMTKNQVSLSCAVKGFYPSDIAVEWESNGQPENNYKTTPPVLDSDGSFFLVSKLTVDKSRWQQGNVFSCSVMHEALHNRFTQKSLSLSPGK
light: DIVMTQSPLSLPVTPGEPASISCRSSQSLLHSDGYNYLDWYLQKSGQSPQLLIYLGSYRASGVPDRFSGSGSGTDFTLKISRVEAEDVGIYYCMQVLQTPWTFGQGTKVEIKRTVAAPSVFIFPPSDEQLKSGTASVVCLLNNFYPREAKVQWKVDNALQSGNSQESVTEQDSKDSTYSLSSTLTLSKADYEKHKVYACEVTHQGLSSPVTKSFNRGEC
chain: EVQLVESGGGLVQAGGSLRLSCAASGRPFSNYGMGWFRQAPGKKREFVAGISWSGGSTDYADSVKGRFTISRDNAKNTVYLQMNSLKPEDTAVYYCAAVFSGAETAYYPSDDYDYWGQGTQVTVSSEPKSSDKTHTCPPCPAPEAAGGPSVFLFPPKPKDTLMISRTPEVTCVVVSVSHEDPEVKFNWYVDGVEVHNAKTKPREEQYNSTYRVVSVLTVLHQDWLNGKEYKCKVSNKALPAPIEKTISKAKGQPREPQVYTLPPSREEMTKNQVSLWCLVKGFYPSDIAVEWESNGQPENNYKTTPPVLDSDGSFFLYSKLTVDKSRWQQGNVFSCSVMHEALHNHYTQKSLSLSPGK
B2: CD33 antibody JL2 combined with Vdelta2 antibody 5D3 (JL2x5D3), Fab (CD33) x VHH (Vδ2) Fc construct (bispecific antibody, human IgG1, kappa, L234A L235A)
heavy: EVQLVESGGGLVQPGGSLRLSCVVSGFTFSSYWMTWVRQAPGKGLEWVANIKQDGSERYYVDSVKGRFTISRDSAKNSLYLQMNSLRAEDTAVYYCAREVGYNWNQGGYFDYWGQGTLVTVSSASTKGPSVFPLAPSSKSTSGGTAALGCLVKDYFPEPVTVSWNSGALTSGVHTFPAVLQSSGLYSLSSVVTVPSSSLGTQTYICNVNHKPSNTKVDKKVEPKSCDKTHTCPPCPAPEAAGGPSVFLFPPKPKDTLMISRTPEVTCVVVSVSHEDPEVKFNWYVDGVEVHNAKTKPREEQYNSTYRVVSVLTVLHQDWLNGKEYKCKVSNKALPAPIEKTISKAKGQPREPQVYTLPPSREEMTKNQVSLSCAVKGFYPSDIAVEWESNGQPENNYKTTPPVLDSDGSFFLVSKLTVDKSRWQQGNVFSCSVMHEALHNRFTQKSLSLSPGK
light: DIVMTQSPLSLPVTPGEPASISCRSSQSLLHSDGYNYLDWYLQKSGQSPQLLIYLGSYRASGVPDRFSGSGSGTDFTLKISRVEAEDVGIYYCMQVLQTPWTFGQGTKVEIKRTVAAPSVFIFPPSDEQLKSGTASVVCLLNNFYPREAKVQWKVDNALQSGNSQESVTEQDSKDSTYSLSSTLTLSKADYEKHKVYACEVTHQGLSSPVTKSFNRGEC
chain: EVQLVESGGGLVQAGGSLRLSCAASGRPFSNYAMGWFRQAPGKEREFVTVISWSGGSTYYADSVKGRFTISRDNAKNTVYLQMNSLKPEDTAVYYCAAQFSGASTVVAGTALDYDYWGQGTRVTVSSEPKSSDKTHTCPPCPAPEAAGGPSVFLFPPKPKDTLMISRTPEVTCVVVSVSHEDPEVKFNWYVDGVEVHNAKTKPREEQYNSTYRVVSVLTVLHQDWLNGKEYKCKVSNKALPAPIEKTISKAKGQPREPQVYTLPPSREEMTKNQVSLWCLVKGFYPSDIAVEWESNGQPENNYKTTPPVLDSDGSFFLYSKLTVDKSRWQQGNVFSCSVMHEALHNHYTQKSLSLSPGK

Biological target: human CD33 on CD33-expressing THP-1 cells (human, UniProt P20138 18-364)
Assay: cell-based or functional assay

Sequence of human CD33 on CD33-expressing THP-1 cells (P20138 18-364): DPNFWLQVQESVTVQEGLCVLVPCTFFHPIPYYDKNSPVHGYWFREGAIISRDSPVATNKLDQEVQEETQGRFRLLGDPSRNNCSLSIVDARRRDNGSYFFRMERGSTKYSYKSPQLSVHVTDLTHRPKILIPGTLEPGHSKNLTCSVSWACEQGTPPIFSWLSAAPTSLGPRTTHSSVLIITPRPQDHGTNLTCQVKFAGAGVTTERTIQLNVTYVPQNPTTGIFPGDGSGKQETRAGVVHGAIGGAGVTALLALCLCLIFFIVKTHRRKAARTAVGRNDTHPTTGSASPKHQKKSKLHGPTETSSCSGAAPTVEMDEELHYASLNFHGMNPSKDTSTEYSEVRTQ

Binder | Cytotox EC50 (pM) E:T 1:1 - 22 hrs [pM] | Cytotox EC50 (pM) E:T 1:20 - 94 hrs [pM]
B1 | 4 | 20
B2 | 28 | ~380
